Source: US20220251170A1 (KOREA INSTITUTE OF SCIENCE AND TECHNOLOGY, published 2022)

Molecular target: T1, human CD47 on the surface of HT29 and Raji tumor cells (human, UniProt Q08722 19-323)
T1 construct: whole, on cells; also called cell surface CD47
Assay: cell binding assay, flow cytometry, anti-Myc detection (FIG. 15A)
Procedure: Cell binding analysis according to one embodiment of the present invention was carried out by culturing HT29 human colon adenocarcinoma (ATCC), Raji human B cell lymphoma (ATCC) and CT26.CL25 mouse colon cancer cells (ATCC) in RPMI-1640 culture medium supplemented with 10% FBS and 1% antibiotics and the cultures were maintained at 37° C. and 5% CO₂. HT29 and Raji cells were then cultured with the addition of an anti-human CD47 antibody (B6H12.2, Abcam, ab3283) and CT26.CL25 cells were incubated with anti-mouse CD47 antibody (Santa Cruz, sc-12731). For cell binding assays, HT29, Raji and CT26.CL25 cells (1×10⁶) were incubated at 4° C. for 30 minutes with the addition of PBS, exosomes or mSIRPα, respectively. The cells were then incubated with anti-Myc antibodies (1:400, Abcam, ab9106) and detected by the addition of Alexa fluor 488-conjugated secondary antibody (1:800, Jackson ImmunoResearch). The cells were then measured using an Accuri™ C6 flow cytometer (BD Biosciences) and analyzed using FlowJo_V10 software (FlowJo). The binding specificity of SIRPα-exosomes to CD47 was analyzed by block experiments through pre-incubation of cells with anti-human CD47 antibody (1:100, Abcam, ab3283).

T1 sequence (Q08722 19-323): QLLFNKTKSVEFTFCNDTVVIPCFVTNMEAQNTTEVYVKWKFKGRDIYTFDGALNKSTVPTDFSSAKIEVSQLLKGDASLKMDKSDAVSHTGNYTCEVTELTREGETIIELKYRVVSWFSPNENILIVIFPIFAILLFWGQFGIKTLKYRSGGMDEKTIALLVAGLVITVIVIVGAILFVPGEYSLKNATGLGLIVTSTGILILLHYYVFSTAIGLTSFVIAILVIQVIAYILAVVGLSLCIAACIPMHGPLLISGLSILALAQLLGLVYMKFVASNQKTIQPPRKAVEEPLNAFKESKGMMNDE

B1: purified recombinant SIRPα-Myc monomer protein (mSIRPα) (receptor)
chain: EEELQIIQPDKSVLVAAGETATLRCTITSLFPVGPIQWFRGAGPGRVLIYNQRQGPFPRVTTVSDTTKRNNMDFSIRIGNITPADAGTYYCIKFRKGSPDDVEFKSGAGTELSVRAKP
notes: Expressed in bacteria from pET-28a (Nde I-SIRPα variant-Myc-Hind III), purified on Ni-NTA; also called monomeric SIRPα protein; recombinant SIRPα protein; not shown: N-terminal histidine tag from pET-28a; C-terminal Myc tag
binding result: binds
